Consider seven substances from PMC13355702.

The target of test [1] is BcM60K (metallopeptidase domain of the Bacteroides caccae peptidase_M60 O-glycopeptidase BcM60K) (Bacteroides caccae).

Turning to “FRET substrate mNeonGreen-IgA1 hinge linker-mScarlet-I, Tn-modified (domain or fragment)”, the KM of cleavage of the FRET substrate (global fit of progress curves) with BT4244 was 1 µM.

For the substance “FRET substrate mNeonGreen-MUC2_R1 linker-mScarlet-I, Tn-modified (domain or fragment)”, the KM of cleavage of the FRET substrate (global fit of progress curves) in the test with BT4244 is 5.6 µM.

Consider “FRET substrate mNeonGreen-MUC5AC_R2 linker-mScarlet-I, 3SC1-modified (domain or fragment)”, for which, in test [1], the KM of cleavage of the FRET substrate (global fit of progress curves) is 7.6 µM.

In the case of “FRET substrate mNeonGreen-MUC5AC_R2 linker-mScarlet-I, 6SC1-modified (domain or fragment)”, the KM of cleavage of the FRET substrate (global fit of progress curves) in test [1] was 2.5 µM.

With “FRET substrate mNeonGreen-MUC5AC_R2 linker-mScarlet-I, C1-modified (domain or fragment)”, the KM of cleavage of the FRET substrate (global fit of progress curves) came out at 2.9 µM with BT4244 and 6.2 µM in test [1].

With “FRET substrate mNeonGreen-MUC5AC_R2 linker-mScarlet-I, C2-modified (domain or fragment)”, in test [1], the KM of cleavage of the FRET substrate (global fit of progress curves) worked out at 4.5 µM.

For the substance “FRET substrate mNeonGreen-MUC5AC_R2 linker-mScarlet-I, Tn-modified (domain or fragment)”, the KM of cleavage of the FRET substrate (global fit of progress curves) worked out at 2.9 µM with BT4244 and 7.8 µM in test [1].
